Assay results from publication PMC6306002.

Test system: T1, OhsR-SSM (S-mycothiolated OhsR) (Corynebacterium glutamicum), ORF:a3d30e29
T1 sequence: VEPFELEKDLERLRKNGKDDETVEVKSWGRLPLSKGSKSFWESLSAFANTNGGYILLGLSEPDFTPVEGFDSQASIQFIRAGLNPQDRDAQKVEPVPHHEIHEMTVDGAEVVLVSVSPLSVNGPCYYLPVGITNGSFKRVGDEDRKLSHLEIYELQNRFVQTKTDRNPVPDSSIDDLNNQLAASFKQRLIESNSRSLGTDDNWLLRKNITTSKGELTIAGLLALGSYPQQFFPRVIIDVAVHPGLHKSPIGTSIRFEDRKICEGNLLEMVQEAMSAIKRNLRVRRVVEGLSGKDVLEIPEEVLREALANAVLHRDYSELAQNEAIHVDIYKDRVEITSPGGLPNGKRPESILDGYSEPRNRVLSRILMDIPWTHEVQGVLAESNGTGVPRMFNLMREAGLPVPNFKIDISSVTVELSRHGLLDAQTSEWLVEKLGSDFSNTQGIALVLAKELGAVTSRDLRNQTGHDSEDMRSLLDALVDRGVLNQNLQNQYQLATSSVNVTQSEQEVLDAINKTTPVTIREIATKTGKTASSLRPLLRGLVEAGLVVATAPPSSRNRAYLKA
Assay: EMSA
Settings: EMSA: 20 mM Tris-HCl pH 7.4, 4 mM MgCl2, 100 mM NaCl, 10% glycerol, room temperature 30 min; 20 ng DNA, 0-4 ug OhsR; 6% native PAGE, 0.5x TBE, SYBR Green

CACCTTGTTGGTGGGCCGGGATTTTTGTTGTTTAGATTTTTGAAAGCACACTTTTGTCCCTTAACTAGTGCGTGTGTACATTCGACACCAAGATTTGGGCAATATGGTGCCCAAAATCAGGAAATCTTGCTGTCTAATGCACAACGGAAAACTGCTCACGGACGAACTAGTTGTAGCGAGCGTATTCTTTGTGTTCTCTC (double strand) [Pohr (ohr promoter, 200 bp)]
binding: binds
